# According to patent publication US5876717A (Ajinomoto Co., Inc., dated 1999):
# B1: Fv(TU27): single chain polypeptide of 240 amino acids consisting only of V regions of TU27 anti-IL-2 receptor β chain antibody (protein)
# scFv: MDILLTQSPAILSVSPGERVSFSCRASQSIGTSIHWYQQRTNGSPRLLIKYASESLSGIPSRFSGSGSGTDFTLSITSVDSEDIADYYCQQTNSWPTTFGGGTKLELKVDKSSGSGSESKSTQVKLEESGPGLVKPSQSLSLTCTVTGYPITSDYAWDWIRQFPGNKLEWMGYVSYSGSTDYNPSLKSRISISRDTSKNQFFLQLNSVTTEDTATYYCARGGFPYAMDYWGQGTTVTVSS
# B2: polypeptide Fv(TU25) (scFv)
# scFv: MDIQLTQSPAILSVSPGERVSFSCRASQTIGTSIHWYQQRTNGSPRLLIKYASESISGIPSRFSGSGSGTDFTLSINNVESEDIADYYCQQTNTWPTTFGSGTKLELKVDKSSGSGSESKSTQVKLEQSGGGLVKPGGSLKLSCAASGFAFSSYDMSWVRQTPEKRLNWVATFSSDGSDTDYPDSVKGRFTISRDNARNTLYLQMSSLRSEDTALYYCARGYPYAMDYWGQGTTVTVSS
# Experiments:
# β chain of IL-2 receptor = test: Inhibition of binding of 125I-labelled IL-2 to MOLT4 cells transfected with cDNA for the β chain of IL-2 receptor; set-up: species or system human; conditions: 4° C.
# Method: To the resulting suspension were added polypeptide Fv(TU27), TU27 monoclonal antibody (originating in hybridoma FERM BP-2510), polypeptide Fv(TU25) and TU25 monoclonal antibody (originating in hybridoma FERM BP-3529) diluted with the same type culture medium to an appropriate concentration, and this was reacted for one hour at 4° C.
# [1] = tested on: β chain of IL-2 receptor on the surface of each YT cell; test: Inhibition of binding of 125I-labelled TU27 or TU25 antibody to YT cells; set-up: species or system human; conditions: 4° C.
# Method: (§1) In an RPMI-1640 culture medium containing 0.5% BSA and 0.02% NaN2 there were suspended 5×10^5 YT cells to which were added polypeptide Fv(TU27), TU27 antibody, polypeptide Fv(TU25) and TU25 antibody diluted with the same type culture medium to an appropriate concentration and then reacted for one hour at 4° C. Then a TU27 or TU25 antibody labelled with ^125 I according to the chloramine T method was added to the mixture which was subjected to a 2 hour reaction at 4° C., after which the radioactivity bound to cell surfaces was measured.
# [2] = target: β chain of human IL-2 receptor (human, UniProt P14784); test: competition with 125I-labelled TU27 or TU25 antibody on YT cells
# Method: as §1, with “NaN_2” for “NaN2”, “^125I” for “^125 I”
Molecule,activity to inhibit the binding of IL-2 to a β chain of an IL-2 receptor (β chain of IL-2 receptor),activity to inhibit the binding between TU27 or TU25 monoclonal antibody and the β chain of IL-2 receptor [1],binding result [2]
B1,have activity to inhibit the binding of IL-2,have activity to inhibit the binding,–
B2,have activity to inhibit the binding of IL-2,have activity to inhibit the binding,binds
